{"source": "patent US20020064828A1", "about": "(UNIVERSITY OF BALTIMORE BIOTECHNOLOGY INSTITUTE, published 2002)", "key": {"[1]": {"biological_target": "full-length human presenilin 2 (PS2) expressed in HeLa cells (human, UniProt P49810 1-448)", "assay": "cell-based or functional assay"}, "[2]": {"biological_target": "T1, PS1-loop C bait with L282I, T291A (human)", "T1 construct": "Range inferred as for PS1-loop C; not shown: LexA moiety of pEG202 (N-terminal fusion partner) and the vector-encoded junction residues", "assay": "yeast two-hybrid liquid assay, mutated PS1-loop C bait against the T291A bait", "procedure": "(§1) Three isolates from yeast transformed with the calmyrin in pJG4-5 (clone 7) plus each PS bait or the control lamin bait were assayed for β-galactosidase enzyme activity in liquid cultures using ONPG (O-nitrophenyl β-D-galactopyranoside) as a substrate (Reynolds and Lundblad, 1989).\n(§2) Further investigation was performed to determine how these three divergent residues influenced calmyrin interaction with the PS-loop C region in yeast two-hybrid assays. […] When both proline and alanine were present together (T281P, T291A) they increased binding substantially, producing an approximately twofold higher level of binding compared with the wild-type PS2-loop bait."}, "[3]": {"biological_target": "T2, PS1-loop C bait with T281P, T291A (human)", "T2 construct": "Range inferred as for PS1-loop C; also called (T281P, T291A) double mutant; not shown: LexA moiety of pEG202 (N-terminal fusion partner) and the vector-encoded junction residues", "assay": "yeast two-hybrid liquid assay, mutated PS1-loop C bait against PS2-loop C bait", "procedure": "as §1, §2"}, "[4]": {"biological_target": "T3, PS1-loop C bait with T281P (human)", "T3 construct": "Range inferred as for PS1-loop C; not shown: LexA moiety of pEG202 (N-terminal fusion partner) and the vector-encoded junction residues", "assay": "yeast two-hybrid liquid assay, mutated PS1-loop C bait against PS2-loop C bait", "procedure": "as §1, §2"}, "[5]": {"biological_target": "T4, PS1-loop C bait with T291A (human)", "T4 construct": "Range inferred as for PS1-loop C; not shown: LexA moiety of pEG202 (N-terminal fusion partner) and the vector-encoded junction residues", "assay": "yeast two-hybrid liquid assay, mutated PS1-loop C bait against PS2-loop C bait", "procedure": "as §1, §2"}, "[6]": {"biological_target": "T5, PS2-C term bait (LexA fusion, COOH-terminal sequence of PS2 downstream of the eighth TMD) (human)", "T5 construct": "also called PS2-COOH-terminal construct; PS2-COOH-terminal domain; not shown: LexA moiety of pEG202, NH2-terminal of the bait", "T5 sequence (chain, as listed by the source limits assumed)": "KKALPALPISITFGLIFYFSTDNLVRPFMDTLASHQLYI", "assay": "yeast two-hybrid liquid beta-galactosidase assay", "procedure": "(§3) All PCR-amplified regions were digested with EcoRI and XhoI, cloned into pEG202, and confirmed by DNA sequencing. These various baits were transformed into EGY48 and found by immunoblotting of yeast extracts to express appropriately sized lexA-PS fusion polypeptides. Three isolates from yeast transformed with the calmyrin in pJG4-5 (clone 7) plus each PS bait or the control lamin bait were assayed for β-galactosidase enzyme activity in liquid cultures using ONPG (O-nitrophenyl β-D-galactopyranoside) as a substrate (Reynolds and Lundblad, 1989).\nTo quantify the binding specificity of calmyrin to the PS2-loop and to determine if this protein also interacts with the PS1 loop which is 45% identical in amino acid sequence, the galactosidase activity was measured in yeast liquid assays."}, "[7]": {"biological_target": "T6, PS1-loop C bait with T281P, L282I (human)", "T6 construct": "Range inferred as for PS1-loop C; not shown: LexA moiety of pEG202 (N-terminal fusion partner) and the vector-encoded junction residues", "assay": "yeast two-hybrid liquid assay, mutated PS1-loop C bait against the T281P bait", "procedure": "as §1, §2"}, "[8]": {"biological_target": "T7, PS1-loop C bait (LexA fusion, region of PS1 corresponding to PS2-loop C) (human)", "T7 construct": "not shown: LexA moiety of pEG202, NH2-terminal of the bait", "assay": "yeast two-hybrid liquid assay, PS1-loop C against PS2-loop C"}, "[9]": {"biological_target": "T7, PS1-loop C bait (LexA fusion, region of …)", "assay": "yeast two-hybrid liquid beta-galactosidase assay (ONPG), LexA bait and calmyrin prey", "procedure": "as §3\n(§4) To further map the binding site of calmyrin within the PS2-loop, two new baits were constructed which divided the loop into a conserved portion, loop C (28 out of the 31 amino acids are identical to PS1 ), and a divergent region, loop D (only 33% identity to PS1; FIG. 1)."}, "[10]": {"biological_target": "T8, PS2-loop C bait (LexA fusion, conserved 31-amino acid loop region of PS2) (human)", "T8 construct": "Range 270-300 follows from loop start 270 and '31 amino acids'; also called wild-type PS2-loop bait; not shown: LexA moiety of pEG202, NH2-terminal of the bait", "assay": "yeast two-hybrid liquid beta-galactosidase assay (ONPG), LexA bait and calmyrin prey", "procedure": "as §3, §4"}, "[11]": {"biological_target": "T9, PS2-loop B bait (LexA fusion, first 50 amino acids of the PS2 loop) (human, UniProt O88777 270-319 (rat entry))", "T9 construct": "Range 270-319 follows from 'residues 270-361' and 'the first 50 amino acids of the PS2 loop'; also called PS2-loop bait; loop bait; not shown: LexA moiety of the pEG202 LexA fusion plasmid, NH2-terminal of the bait", "T9 sequence (O88777 270-319 limits assumed)": "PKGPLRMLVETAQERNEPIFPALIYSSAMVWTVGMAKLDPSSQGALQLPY", "assay": "yeast two-hybrid liquid beta-galactosidase assay (ONPG), LexA bait and calmyrin prey", "procedure": "as §3, §4"}, "[12]": {"biological_target": "T10, PS2-loop D bait (LexA fusion, divergent region of the PS2 loop) (human, also: N-terminal LexA (pEG202) fusion, limits and linker not given here)", "T10 construct": "Range 301-319 is inferred from loop B being divided into loop C (31 aa) and loop D; not shown: LexA moiety of pEG202, NH2-terminal of the bait", "T10 chain": "TVGMAKLDPSSQGALQLPY", "assay": "yeast two-hybrid liquid beta-galactosidase assay (ONPG), LexA bait and calmyrin prey", "procedure": "as §3, §4"}, "[13]": {"biological_target": "T11, PS1-loop B bait (LexA fusion, region of PS1 corresponding to PS2-loop B) (human, UniProt P49768 264-315)", "T11 construct": "not shown: LexA moiety of pEG202, NH2-terminal of the bait", "assay": "yeast two-hybrid liquid beta-galactosidase assay (ONPG), LexA bait and calmyrin prey", "procedure": "as §3, §4"}}, "note": "Where no end group is shown, it is not given here.", "data": [{"binder": "untagged full-length wild type calmyrin expressed in HeLa cells (other, myristoylated (NH2 consensus myristoylation site; 3H-myristic acid incorporated)) GGSGSRLSKELLAEYQDLTFLTKQEILLAHRRFCELLPQEQRTVESSLRAQVPFEQILSLPELKANPFKERICRVFSTSPAKDSLSFEDFLDLLSVFSDTATPDIKSHYAFRIFDFDDDGTLNREDLSRLVNCLTGEGEDTRLSASEMKQLIDNILEESDIDRDGTINLSEFQHVISRSPDFASSFKIVL", "values": [{"measurement": "cell death (floating HeLa cells), fold over control, on coexpression", "setting": "[1]", "value": 5.9, "unit": "fold"}]}, {"binder": "calmyrin (calcium-binding myristoylated protein with homology to calcineurin), yeast two-hybrid prey in pJG4-5 (clone 7) (other, not shown: large carriers, Prey fusion in yeast; also called CIB; KIP) MGGSGSRLSKELLAEYQDLTFLTKQEILLAHRRFCELLPQEQRTVESSLRAQVPFEQILSLPELKANPFKERICRVFSTSPAKDSLSFEDFLDLLSVFSDTATPDIKSHYAFRIFDFDDDGTLNREDLSRLVNCLTGEGEDTRLSASEMKQLIDNILEESDIDRDGTINLSEFQHVISRSPDFASSFKIVL", "values": [{"measurement": "binding result", "setting": "[2]", "value": "binds"}, {"measurement": "fold level of binding compared with the wild-type PS2-loop bait", "setting": "[3]", "value": "~2", "unit": "fold"}, {"measurement": "interaction relative to the PS2 level", "setting": "[4]", "value": "~0.5 fraction of the PS2 level"}, {"measurement": "binding relative to the PS2 level", "setting": "[5]", "value": "0.33 fraction of the PS2 level"}, {"measurement": "binding result", "setting": "[6]", "value": "no binding"}, {"measurement": "fold binding compared with the T281P bait", "setting": "[7]", "value": 1.7, "unit": "fold"}, {"measurement": "interaction strength relative to the PS2-loop region", "setting": "[8]", "value": "< 0.1 fraction of the PS2-loop strength"}, {"measurement": "fold increase in beta-galactosidase activity over control", "setting": "[9]", "value": 5.8, "unit": "fold"}, {"measurement": "fold increase in beta-galactosidase activity over control", "setting": "[10]", "value": 74, "unit": "fold"}, {"measurement": "fold increase in beta-galactosidase activity over lamin B control", "setting": "[11]", "value": 8.5, "unit": "fold"}, {"measurement": "fold increase in beta-galactosidase activity over control", "setting": "[12]", "value": 2.2, "unit": "fold"}, {"measurement": "fold increase in beta-galactosidase activity over lamin B control", "setting": "[13]", "value": 1.9, "unit": "fold"}]}]}
